In US5683867, “Systematic evolution of ligands by exponential enrichment: blended SELEX” (NeXstar Pharmaceuticals, Inc.) one finds Ki data, which are given here for one molecule.

The series concerns the target neutrophil elastase (HNE) (Homo sapiens, UniProt P08246 P08246:30-267). As to the kind of experiment: inhibition; blended ligand (end not specified for Ki); chromogenic substrate, 10 nM elastase, 2 mM MgCl2, 150 mM NaCl, 25 C; >50% inhibition at 70 nM for 3' conjugate. The text has this: The assay for elastase inhibition is based on the use of a chromogenic tetrapeptide substrate. […] The rate of p-nitroanilide generation in the absence of inhibitor was used as the control.

Sequence of neutrophil elastase (HNE) (P08246 30-267, one chain of several): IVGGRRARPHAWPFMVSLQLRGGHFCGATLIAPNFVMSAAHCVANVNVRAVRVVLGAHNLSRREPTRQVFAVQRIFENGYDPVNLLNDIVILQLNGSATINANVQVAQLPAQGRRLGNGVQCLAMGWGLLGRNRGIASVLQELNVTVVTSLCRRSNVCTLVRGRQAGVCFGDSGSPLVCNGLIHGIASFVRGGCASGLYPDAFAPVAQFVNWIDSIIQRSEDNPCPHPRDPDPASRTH

B1: DNA-17 3'-end peptide conjugate (ssDNA)
DNA: TAGCGATACTGCGTGGGTTGGGGCGGGTAGGGCCAGCAGTCTCGTGCGGTACTTGAGCA
modifications: 3' four 18-atom ethylene glycol spacers and thiol coupled to N-methoxysuccinyl-Ala-Ala-Pro-Val-chloromethyl ketone
As for B1, affinity was put at a Ki of 30 nM.
